The results in this text go back to publication PMC3525768.

For this series, the target named is T1, AgrAC (AgrA C-terminal LytTR domain) (Staphylococcus aureus, UniProt P0A0I7 137-238).
T1 sequence: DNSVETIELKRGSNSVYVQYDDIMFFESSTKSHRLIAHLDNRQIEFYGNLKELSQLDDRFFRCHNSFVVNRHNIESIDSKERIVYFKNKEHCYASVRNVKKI
The experiment in a line: EMSA. (A gel shift assay detects complexes by their altered migration in electrophoresis.)

B1: 19-bp AgrA target DNA duplex (dsDNA)
DNA 1: ATTTAACAGTTAAGTATTT
DNA 2: AAATACTTAACTGTTAAAT
As to B1, the binding result is “binds”.
